One series concerns the target His-OsSUF4N (Oryza sativa, UniProt Q653D5 1-105). The series can be described thus: EMSA; ITC: 100 mM NaCl, 20 mM Tris-HCl pH 8.0, 25 C, 2 mM protein into 0.1 mM DNA; EMSA: LightShift kit binding buffer, 5 ug protein, 0.02 uM probe, poly(dI-dC), 25 C 30 min, 5% PAGE. The conditions noted are these: protein: recombinant; tags: His (pET32a). (Mobility shift assays separate free from complexed probe on a gel.)

A further series has as its target His-AtSUF4 (full length) (Arabidopsis thaliana, UniProt Q9C5G0 1-367). Described as above. The conditions noted are these: protein: recombinant; tags: His (pET32a).
A further series concerns the target OsSUF4 ZF K24A (Oryza sativa, UniProt Q653D5 10-100, K24A). The series can be described thus: ITC; ITC: 100 mM NaCl, 20 mM Tris-HCl pH 8.0, 25 C, 2 mM protein into 0.1 mM DNA; EMSA: LightShift kit binding buffer, 5 ug protein, 0.02 uM probe, poly(dI-dC), 25 C 30 min, 5% PAGE. As to conditions: protein: recombinant; tags: pET28-SUMO; Ni column; blunt.
The target of another series is OsSUF4 ZF K31A (Oryza sativa, UniProt Q653D5 10-100, K31A). The series is described as above. As to conditions: protein: recombinant; tags: pET28-SUMO; Ni column; blunt.
Chain of OsSUF4 ZF K31A (Q653D5 entry or part of it K31A | K31A K31A): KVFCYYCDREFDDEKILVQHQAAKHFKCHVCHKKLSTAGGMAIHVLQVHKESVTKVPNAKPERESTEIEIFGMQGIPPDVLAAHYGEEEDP
For a further series, the target named is OsSUF4 ZF K33A (Oryza sativa, UniProt Q653D5 10-100, K33A). The description is as above. As to conditions: protein: recombinant; tags: pET28-SUMO; Ni column; blunt.
Chain of OsSUF4 ZF K33A (Q653D5 entry or part of it K33A | K33A K33A): as the sequence (Q653D5 entry or part of it K31A | K31A K31A) above, with A22K, K24A counted along it
For the next series, the target named is OsSUF4 ZF K36A (Oryza sativa, UniProt Q653D5 10-100, K36A). Described as above. As to conditions: protein: recombinant; tags: pET28-SUMO; Ni column; blunt.
Chain of OsSUF4 ZF K36A (Q653D5 entry or part of it K36A | K36A K36A): as the sequence (Q653D5 entry or part of it K31A | K31A K31A) above, with A22K, K27A counted along it
The target of series [1] is OsSUF4 zinc finger domain WT (Oryza sativa, UniProt Q653D5 10-100). The series is described as above. The conditions noted are these: protein: recombinant; tags: pET28-SUMO; Ni column; blunt.
Chain of OsSUF4 zinc finger domain WT (Q653D5 entry or part of it): as the sequence (Q653D5 entry or part of it K31A | K31A K31A) above, with A22K counted along it
The next series addresses OsSUF4 ZF 4m (Oryza sativa, UniProt Q653D5 10-100, R18A;K33A;K36A;K43A). The series is described as above. The conditions noted are these: protein: recombinant; tags: pET28-SUMO; Ni column; blunt.
A further series deals with OsSUF4 ZF K43A (Oryza sativa, UniProt Q653D5 10-100, K43A). The description is as above. As to conditions: protein: recombinant; tags: pET28-SUMO; Ni column; blunt.
Chain of OsSUF4 ZF K43A (Q653D5 entry or part of it K43A | K43A K43A): as the sequence (Q653D5 entry or part of it K31A | K31A K31A) above, with A22K, K34A counted along it
The target in another series is OsSUF4 ZF R18A (Oryza sativa, UniProt Q653D5 10-100, R18A). Described as above. As to conditions: protein: recombinant; tags: pET28-SUMO; Ni column; blunt.
Chain of OsSUF4 ZF R18A (Q653D5 entry or part of it R18A | R18A R18A): as the sequence (Q653D5 entry or part of it K31A | K31A K31A) above, with R9A, A22K counted along it

This passage reports binding result and Kd results from publication PMC6611904, “The transcription factor OsSUF4 interacts with SDG725 in promoting H3K36me3 establishment”.

Chain of His-OsSUF4N (Q653D5 entry or part of it): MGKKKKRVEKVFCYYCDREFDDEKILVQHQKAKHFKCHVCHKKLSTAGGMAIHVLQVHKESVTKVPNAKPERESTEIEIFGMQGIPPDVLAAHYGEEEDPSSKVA
Chain of OsSUF4 ZF 4m (Q653D5 entry or part of it R18A;K33A;K36A;K43A): as the sequence (Q653D5 entry or part of it K31A | K31A K31A) above, with R9A, A22K, K24A, K27A, K34A counted along it
Chain of OsSUF4 ZF K24A (Q653D5 entry or part of it K24A | K24A K24A): as the sequence (Q653D5 entry or part of it K31A | K31A K31A) above, with K15A, A22K counted along it
Chain of His-AtSUF4 (full length) (Q9C5G0 whole entry): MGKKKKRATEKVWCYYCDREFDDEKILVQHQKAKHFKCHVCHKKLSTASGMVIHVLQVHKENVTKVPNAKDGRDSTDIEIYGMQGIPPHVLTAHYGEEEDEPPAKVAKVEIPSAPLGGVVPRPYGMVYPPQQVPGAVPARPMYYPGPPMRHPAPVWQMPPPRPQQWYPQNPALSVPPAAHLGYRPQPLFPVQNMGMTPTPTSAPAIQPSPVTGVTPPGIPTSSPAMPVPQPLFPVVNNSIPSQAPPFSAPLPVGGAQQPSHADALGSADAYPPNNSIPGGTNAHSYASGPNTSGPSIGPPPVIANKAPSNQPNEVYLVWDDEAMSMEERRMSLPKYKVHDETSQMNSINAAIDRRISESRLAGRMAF

B1: RFT1-WT (dsDNA)
DNA 1: AGTATGAGTTTTGGAATCGGAAATATACCGAAC
DNA 2: GTTCGGTATATTTCCGATTCCAAAACTCATACT
With B1, in the series with His-OsSUF4N, the binding result is on record as “binds”.

B2: Hd3a-mu8 (dsDNA)
DNA 1: ACAGTTAACTAACGGCCTAAGGGGGGTATAAA
DNA 2: TTTATACCCCCCTTAGGCCGTTAGTTAACTGT
In the case of B2, the binding result with His-OsSUF4N is reported as “no binding”.

B3: Os06g06490 probe (dsDNA)
DNA 1: ATATTTTTTCGCGGAAATTCGGTCTTCACT
DNA 2: AGTGAAGACCGAATTTCCGCGAAAAAATAT
In the case of B3, the binding result with His-OsSUF4N is “binds”.

B4: Hd3a-e (Hd3a-WT) (dsDNA)
DNA 1: ACAGTTAACTAACGGTACGGAAATGGTATAAA
DNA 2: TTTATACCATTTCCGTACCGTTAGTTAACTGT
For B4, the binding result in the series with His-AtSUF4 (full length) is reported as “no binding”.

B5: Os12g21784 probe (dsDNA)
DNA 1: CTTTCTCTTCGGAAATATAAATATATACCC
DNA 2: GGGTATATATTTATATTTCCGAAGAGAAAG
Consider B5, for which the binding result with His-OsSUF4N is on record as “binds”.

B6: Os02g08490 probe (dsDNA)
DNA 1: AGACCGTCGATTCGGAAATAAACGGGCCGG
DNA 2: CCGGCCCGTTTATTTCCGAATCGACGGTCT
With B6, the binding result in the series with His-OsSUF4N was “binds”.

B7: Os09g31486 probe (dsDNA)
DNA 1: CCACCGAAATGACGGAAATGCCCCTGGCCG
DNA 2: CGGCCAGGGGCATTTCCGTCATTTCGGTGG
Regarding B7, the binding result with His-OsSUF4N is recorded as “binds”.

B8: Os04g49660 probe (dsDNA)
DNA 1: AGGACTAATTCGGAAATCTCCCCTTCCCGT
DNA 2: ACGGGAAGGGGAGATTTCCGAATTAGTCCT
For B8, in the series with His-OsSUF4N, the binding result is “binds”.

B9: Os12g01760 probe (dsDNA)
DNA 1: ATCATTTTTTCGGAAATATACAAATGCTGA
DNA 2: TCAGCATTTGTATATTTCCGAAAAAATGAT
Consider B9, for which, in the series with His-OsSUF4N, the binding result was “binds”.

B10: ITC 16-bp DNA (dsDNA)
DNA 1: GGGTACGGAAATGGTA
DNA 2: TACCATTTCCGTACCC
As a reminder, the Kd is the free concentration of one partner at which half of the binding sites on the other are occupied at equilibrium, for simple one-to-one binding. For B10, the binding result with OsSUF4 ZF K24A, with OsSUF4 ZF K31A, in the series with OsSUF4 ZF K33A, with OsSUF4 ZF K36A, in the series with OsSUF4 ZF 4m and in the series with OsSUF4 ZF K43A was “no binding” in each case. In the series with OsSUF4 ZF R18A, the binding result is given as “no binding”. Moreover, in [1], the Kd turned out to be 51.3 ± 3.68 µM.

B11: Os05g48810 probe (dsDNA)
DNA 1: TATATTCAATGTCGGAAATCATTCCCGTAC
DNA 2: GTACGGGAATGATTTCCGACATTGAATATA
On to B11, for which the binding result with His-OsSUF4N is on record as “binds”.
